For series [1], the target named is T1, GlnA4 (gamma-glutamylethanolamide synthetase) (Streptomyces coelicolor, UniProt O88070).
T1 construct: His-GlnA4
T1 sequence (O88070 1-462): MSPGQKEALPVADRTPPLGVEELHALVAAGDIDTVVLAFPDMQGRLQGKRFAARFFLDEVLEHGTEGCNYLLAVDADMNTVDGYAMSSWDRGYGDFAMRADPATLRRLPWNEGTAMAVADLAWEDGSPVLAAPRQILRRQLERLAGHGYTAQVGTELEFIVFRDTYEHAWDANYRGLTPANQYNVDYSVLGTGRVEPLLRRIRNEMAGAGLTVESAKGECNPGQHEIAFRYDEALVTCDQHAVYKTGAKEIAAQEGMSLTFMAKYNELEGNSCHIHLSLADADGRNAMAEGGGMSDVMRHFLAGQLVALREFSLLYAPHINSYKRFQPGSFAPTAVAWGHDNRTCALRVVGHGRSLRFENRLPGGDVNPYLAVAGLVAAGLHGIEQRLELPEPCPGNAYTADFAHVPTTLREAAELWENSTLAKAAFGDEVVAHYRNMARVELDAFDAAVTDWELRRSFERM
The experiment in a line: Pi-release inhibition assay with purified His-GlnA4, Ki from IC50 (Cheng-Prusoff); weak. The format is biochemical.

Series [2] addresses T1, GlnA4 (gamma-glutamylethanolamide synthetase). The experiment in a line: HPLC/ESI-MS detection of reaction product of purified His-GlnA4. Type of series: biochemical.
Substrate in series [3]: NCCO
In words: purified protein. The conditions noted are these: ATP, Mg2+ (MgCl2).

Substrate in series [4]: N[C@@H](CCC(=O)O)C(=O)O
In words: purified protein. The conditions noted are these: ATP, Mg2+ (MgCl2).

Substrate in series [5]: Nc1ncnc2c1ncn2[C@@H]1O[C@H](COP(=O)(O)OP(=O)(O)OP(=O)(O)O)[C@@H](O)[C@H]1O
The experiment in a line: Pi-release enzyme kinetics with purified His-GlnA4. Type of series: biochemical, Streptomyces coelicolor. The settings on record: Mg2+ (MgCl2).

As a reminder, the Ki is the equilibrium dissociation constant of an inhibitor or competing ligand from its target. Lower therefore signals higher affinity. As for `CS(=N)(=O)CC[C@H](N)C(=O)O` (some centres unmarked) [methionine sulfoximine], in series [1], the inhibition constant Ki was around 11 mM.

As to `N[C@@H](CCC(=O)NCCO)C(=O)O` [gamma-glutamylethanolamide], the “HPLC/ESI-MS detection of reaction product of purified His-GlnA4” value in series [2] was “GlnA4 is a functional gamma-glutamylethanolamide synthetase that uses glutamate and ethanolamine as substrates to generate gamma-glutamylethanolamide”.

B1: GlnA4 (gamma-glutamylethanolamide synthetase) (Streptomyces coelicolor A3(2)) (protein)
chain: T1 sequence (O88070 1-462)
notes: His-GlnA4
A word on the Km: it is the concentration of substrate that gives half-maximal velocity. B1: the values for the Km in series [3], in series [4] and in series [5] were 470 µM, 85410 µM and 2500 µM, respectively.
